Assay results from US20250043319A1, “BIOSYNTHESIS OF CYCLOLAVANDULYL DERIVATIVES OF AROMATIC COMPOUNDS” (Invizyne Technologies, Inc., priority 2022, published 2025).

Experiments:
Assay type in all cases: biochemical
Conditions in all cases: cell-free reaction with CLDS and DMAPP (CLPP donor), 28° C., 48 hours, QTOF LC/MS, with vs without prenyltransferase
[1] = cell-free cyclolavandulylation activity screening of prenyltransferases, substrate tryptophan
Description: (§1) Genes encoding the following prenyltransferases were codon-optimized, synthesized, and cloned into the pET28a vector for protein expression and isolation/purification as described in Example 1. • NphB (Accession: 1ZB6_A) (SEQ ID NO: 8) • AbPT (Accession: KPI30840.1) (SEQ ID NO: 9) • SkPT (Accession: Q2L6E3.1) (SEQ ID NO: 10) • SvPT (Accession: WP_078899560.1) (SEQ ID NO: 11) • Sr1310PT (Accession: WP_057602682.1) (SEQ ID NO: 12) • NapT8 (Accession: ABS50461.1) (SEQ ID NO: 13) • NapT9 (Accession: ABS50490.1) (SEQ ID NO: 14) • Mcl23PT (Accession: AGH68908.1) (SEQ ID NO: 15) • CnqP3PT (Accession: WP_047018069.1) (SEQ ID NO: 16) • AtaWTPT (Accession: AMB20850.1) (SEQ ID NO: 17) • MzPT1 (Accession: WP_135330628.1) (SEQ ID NO: 18) • MzPT2 (Accession: WP_135330626.1) (SEQ ID NO: 19) B. Cell-Free Biosynthesis Reaction with CLPP and Various Aromatic Substrates
(§2) The cyclolavandulyl diphosphate synthase, CLDS was prepared as described in Example 1 and used in the synthesis of CLPP.
(§3) Stocks of the various aromatic compounds used as substrates for cyclolavandulylation activity screening were obtained from the following commercial sources: • Resveratrol (Fisher Scientific) 200 mM stock in DMSO • Luteolin (Fisher Scientific) 200 mM stock in DMSO • Naringenin (Fisher Scientific) 200 mM stock in DMSO • Tryptamine (Fisher Scientific) 200 mM stock in DMSO • Tryptophan (Fisher Scientific) 40 mM stock in water • Olivetolic acid (Toronto Research Chemicals) 200 mM stock in DMSO • Divarinic acid (Toronto Research Chemicals) 200 mM stock in DMSO • Phorolic acid (prepared in house) 200 mM stock in DMSO • Olivetol (Fisher Scientific) 200 mM stock in DMSO • Screening for cell-free biosynthesis was carried out as follows. 10 mM DMAPP, 5 mM MgCl2, 100 mM Tris-HCl (pH=8), and 4 mg/mL CLDS (SEQ ID NO: 4) were combined in a 6.80 mL reaction, which was incubated at 28° C. for 48 hours. This mixture was aliquoted into a 96-well plate (80 μL per well). The various prenyltransferases (18 μL, ˜1 g/L final concentration) listed above were screened across various substrates (2 μL of stock solution, variable concentration shown above), which were added to the wells and incubated at 28° C. for an additional 48 hours.
(§4) Analysis of the reaction mixture was carried out as follows: 50 μL of the reaction mixture were added to 1 mL MeOH. The resulting solution was vortexed, centrifuged at 17,200 g for 5 minutes, and transferred to an HPLC vial for analysis. HRMS-QTOF analyses of the cell free reactions was performed on an Agilent Technologies 6545 Accurate Mass QTOF LC/MS with a reverse-phase column (Agilent Infinity Lab Poroshell 120 ECC18, 2.7 μm, 3.0×50 mm) using positive ESI with 1% MeCN—H2O (0.1% FA) for 2 min followed by a linear gradient of 1-99% MeCN—H2O (0.1% FA) for 14 min with a flow rate of 0.4 mL/min.
(§5) Mass spectrometric (MS) analysis of chromatograms was carried out using MassHunter Qualitative Analysis 10.0. Targeted metabolomics using the exact m/z of the calculated proton adduct [H^+] in the presence and absence of prenyltransferase indicated the presence of cyclolavandulylated product.

[2] = cell-free cyclolavandulylation activity screening of prenyltransferases, substrate luteolin
Description: as §1, §2, §3, §4, §5

[3] = cell-free cyclolavandulylation activity screening of prenyltransferases, substrate naringenin
Description: as §1, §2, §3, §4, §5

[4] = cell-free cyclolavandulylation activity screening of prenyltransferases, substrate tryptamine
Description: as §1, §2, §3, §4, §5

[5] = cell-free cyclolavandulylation activity screening of prenyltransferases, substrate resveratrol
Description: as §1, §2, §3, §4, §5

[6] = cell-free cyclolavandulylation activity screening of prenyltransferases, substrate olivetolic acid
Description: as §1, §2, §3, §4, §5

B1: MzPT2: prenyltransferase, Accession: WP_135330626.1, SEQ ID NO: 19 (protein, listed as Streptomyces sp.)
chain: MSGTAVEKLYSAIEETAGLLDVTCSRDKVWPVLASFEDAIPQAAILFRVATDKRHAGELNLHFMMLPGDVDPYALALSNDLMAKTEHPVGSLLSDIAERFPVESYGIDFGVVKGFQKTWSCFPGNSMQSLSKLAEVPSVPSSLAGNLDFFSRYGLDENVTLVGIDFEHRTMNVYFGEVAELLEPDAVKSMLRDLEMPEPSEQLLNFAKQSFGFYATLSWDSPRIERFCYAAIAPDPMALLDQVEPKIEHFLKTVPYGVDDPKAVYAATSPNDGEFYKIQSYYQWRPRLVNHMHTSVSDSGE
No: presence of cyclolavandulylated product, Aromatic Compound (Substrate) Tryptophan [1] | presence of cyclolavandulylated product, Aromatic Compound (Substrate) Luteolin [2] | presence of cyclolavandulylated product, Aromatic Compound (Substrate) Naringenin [3] | presence of cyclolavandulylated product, Aromatic Compound (Substrate) Tryptamine [4] | presence of cyclolavandulylated product, Aromatic Compound (Substrate) Resveratrol [5] | presence of cyclolavandulylated product, Aromatic Compound (Substrate) Olivetolic Acid [6]

B2: Mcl23PT: prenyltransferase, Accession: AGH68908.1, SEQ ID NO: 15 (protein, listed as Streptomyces sp.)
chain: MSGETDAEELCSAIEETARLVGAPCSREKIWPILTEYRSGFAEGGVVFSAQAGENHAGELDYGLAVPPRIDDPYAHALAHGFVTETDHPVAALLSDIRERCAVTEHFADCGVVGGFRKLYAHFPRDLQKVSEIADIPSMPRAVAENVGLFTRYGLENVVMVGVNYKNKTVSLYFQFTAEGRPRPSAIRSMLGDIGMTEPNERMLDFASNSFRANITLSWDSPKILRVAFAPPPGAGLNLSTVPIPTGPHLEDFVTRAPRAYDGERMNLFAVKWTQDKEFLEVCSYYQLPAGYEPIRQMEIHKEQG
No: presence of cyclolavandulylated product, Aromatic Compound (Substrate) Tryptophan [1] | presence of cyclolavandulylated product, Aromatic Compound (Substrate) Luteolin [2] | presence of cyclolavandulylated product, Aromatic Compound (Substrate) Naringenin [3] | presence of cyclolavandulylated product, Aromatic Compound (Substrate) Tryptamine [4] | presence of cyclolavandulylated product, Aromatic Compound (Substrate) Resveratrol [5] | presence of cyclolavandulylated product, Aromatic Compound (Substrate) Olivetolic Acid [6]

B3: NapT8: prenyltransferase, Accession: ABS50461.1, SEQ ID NO: 13 (protein, listed as Streptomyces aculeolatus)
chain: MEGLYAAIEEASGLLDVAPSRDKVWPILSAYELDKVVVAFRVTTRGSKDLDCRFTALPADVNPYRYAVSKGIAEATDHPVGTLLDDVQANIPVTAHGVDFGVVEGFRKTWTFLPGNDLQKLSKVAALPSMPPSLAENLDFYARYGLDDKNSMIGIDYPSRTVNVYFLQFPDETREPETVRAMLRDLGLPEPSEQMLTLAKQAVGIYTTLTWDSPKIQRITFATLVPDAEALPGRIAVEPSVEKFARNVPHTYPGPVQGLYNVASYSGGEYFKLQTYHQLAEGSLEARVLLGAAGAGS
No: presence of cyclolavandulylated product, Aromatic Compound (Substrate) Tryptophan [1] | presence of cyclolavandulylated product, Aromatic Compound (Substrate) Luteolin [2] | presence of cyclolavandulylated product, Aromatic Compound (Substrate) Naringenin [3] | presence of cyclolavandulylated product, Aromatic Compound (Substrate) Tryptamine [4] | presence of cyclolavandulylated product, Aromatic Compound (Substrate) Resveratrol [5] | presence of cyclolavandulylated product, Aromatic Compound (Substrate) Olivetolic Acid [6]

B4: SkPT: prenyltransferase, Accession: Q2L6E3.1, SEQ ID NO: 10 (protein, listed as Streptomyces sp.)
chain: MPGTDDVAVDVASVYSAIEKSAGLLDVTAAREVVWPVLTAFEDVLEQAVIAFRVATNARHEGDFDVRFTVPEEVDPYAVALSRSLIAKTDHPVGSLLSDIQQLCSVDTYGVDLGVKSGFKKVWVYFPAGEHETLARLTGLTSMPGSLAGNVDFFTRYGLADKVDVIGIDYRSRTMNVYFAAPSECFERETVLAMHRDIGLPSPSEQMFKFCENSFGLYTTLNWDTMEIERISYGVKTENPMTFFARLGTKVEHFVKNVPYGVDTQKMVYAAVTSSGEEYYKLQSYYRWRSVSRLNAAYIAARDKEST
No: presence of cyclolavandulylated product, Aromatic Compound (Substrate) Tryptophan [1] | presence of cyclolavandulylated product, Aromatic Compound (Substrate) Luteolin [2] | presence of cyclolavandulylated product, Aromatic Compound (Substrate) Naringenin [3] | presence of cyclolavandulylated product, Aromatic Compound (Substrate) Tryptamine [4] | presence of cyclolavandulylated product, Aromatic Compound (Substrate) Resveratrol [5] | presence of cyclolavandulylated product, Aromatic Compound (Substrate) Olivetolic Acid [6]

B5: CnqP3PT: prenyltransferase, Accession: WP_047018069.1, SEQ ID NO: 16 (protein, listed as Streptomyces sp.)
chain: MSGAADVERVYSAMEEAARLLDITVSREKVRPALEAYHEVLADAVVVFSMASGRYATELDFSISVPAEAGDPYRVALAKGLTPRTDHPVGRLLADTQEHCPVSMFAFDGEITGGFKKTYAFFPTNDLQSASKLAEIPSMPDSVKENADLFARYGLDKVQMTSIDYKKKAVNLYFSEMSPDILGPDTVRSMLRDMGLKETGETGLTFARRSFSVYPTLNWETGRIERLCFAVISRDPTLAPAERAEDLAKFSKYANNAPYAYAGEARTLVYGLTLTPREEYYKLGSYYQISDIQRKLLKAFDSLND
No: presence of cyclolavandulylated product, Aromatic Compound (Substrate) Tryptophan [1] | presence of cyclolavandulylated product, Aromatic Compound (Substrate) Luteolin [2] | presence of cyclolavandulylated product, Aromatic Compound (Substrate) Naringenin [3] | presence of cyclolavandulylated product, Aromatic Compound (Substrate) Tryptamine [4] | presence of cyclolavandulylated product, Aromatic Compound (Substrate) Resveratrol [5] | presence of cyclolavandulylated product, Aromatic Compound (Substrate) Olivetolic Acid [6]

B6: SvPT: prenyltransferase, Accession: WP_078899560.1, SEQ ID NO: 11 (protein, listed as Streptomyces sp.)
chain: MSEASELADIYSAIEETAQLLDVPCSRDKVQPALAAFGDGLADAHIVFSMATGERYKGELAFDFTVPTAAGDPYAIALANGLVEETDHPIRTLFSDVQKRCPVDSYGVDYGIVGGFKKTYISFPLGDLQRLSALVGIPSMPRALAEHADFFASHGLDDKVSAIAIDYAHRTWNVYFSGIPAEVKEPQTLQSVLQKFGLPEPSEQLMDFIRTSFAMYTTFGWDSTKAERICFSARSSDPTALPAQFEPQIGKFAKSAPYTYTGERVLTYAGALSPSEEFYKLATFYQKTSKLSDRVRPAT
No: presence of cyclolavandulylated product, Aromatic Compound (Substrate) Tryptophan [1] | presence of cyclolavandulylated product, Aromatic Compound (Substrate) Luteolin [2] | presence of cyclolavandulylated product, Aromatic Compound (Substrate) Naringenin [3] | presence of cyclolavandulylated product, Aromatic Compound (Substrate) Tryptamine [4] | presence of cyclolavandulylated product, Aromatic Compound (Substrate) Resveratrol [5] | presence of cyclolavandulylated product, Aromatic Compound (Substrate) Olivetolic Acid [6]

B7: Sr1310PT: prenyltransferase, Accession: WP_057602682.1, SEQ ID NO: 12 (protein, listed as Streptomyces sp.)
chain: MSGAADVERVYAAMEEAAGLLDVSCAREKIYPLLTVFQDTLTDGVVVFSMASGRRSTELDFSISVPVSQGDPYATVVKEGLFQATGSPVDELLADTVAHLPVSMFAIDGEVTGGFKKTYAFFPTDDMPGVAQLAAIPSMPASVAENAELFARYGLDKVQMTSMDYKKRQVNLYFSDLKQEYLQPESVVALARELGLRVPGELGLEFCKRSFAVYPTLNWDTGKIDRLCFAAISTDPTLVPSEDERDIEMFRNYATKAPYAYVGEKRTLVYGLTLSSTEEYYKLGAYYHITDIQRQLLKAFDALED
No: presence of cyclolavandulylated product, Aromatic Compound (Substrate) Tryptophan [1] | presence of cyclolavandulylated product, Aromatic Compound (Substrate) Luteolin [2] | presence of cyclolavandulylated product, Aromatic Compound (Substrate) Naringenin [3] | presence of cyclolavandulylated product, Aromatic Compound (Substrate) Tryptamine [4] | presence of cyclolavandulylated product, Aromatic Compound (Substrate) Resveratrol [5] | presence of cyclolavandulylated product, Aromatic Compound (Substrate) Olivetolic Acid [6]
